{
  "source": "patent US20090203538A1",
  "about": "(INSTITUTE FOR ANTIBODIES, published 2009)",
  "binders": {"B1": {"name": "066-069 antibody (antibody, V domains shown)", "VH": "QVQLVQSEAEVKKPGESLKISCKGSGYSFTSYWIGWVRQMPGKGLEWMGIIYPGDSDTRYSPSFQGQVTISADKSISTAYLQWSSLKASDTAMYYCARTIGLGAFDIWGQGTTVTVSR", "VL": "SSELTQDPAVSVALGQTVRITCQGDSLRSYYASWYQQKPGQAPVLVIYGKNNRPSGIPDRFSGSSSGNTASLTITGAQAEDEADYYCNSRDSSGNHHYVFGTGTKVTVLG", "notes": "Clone of the scFv-CL-cp3 phage library"}, "B2": {"name": "076-048 antibody (antibody, V domains shown)", "VH": "QVQLVQSGAEVKKPGSSVKVSCRASGGTFSSYAISWVRQAPGQGLEWMGGIIPIFGTANYAQKFQGRVTITADKSTSTAYMELSSLRSEDTAVYYCAGDISRGSSWYGYYFDYWGQGTLVTVSR", "VL": "not shown", "notes": "as for B1"}, "B3": {"name": "067-024 antibody (antibody, V domains shown)", "VH": "QVQLVQSGAEVKKPGASVKVSCKASGYTFTSYYMHWVRQAPGQGLEWMGIINPSGGSTSYAQKFQGRVTMTRDTSTSTVYMELSSLRSEDTAVYYCARAKRRGSAFDIWGQGTTVTVSR", "VL": "SSELTQDPAVSVALGQTVRITCQGDSLRSYYASWYQQKPGQAPVLVIYGKNNRPSGIPDRFSGSSSGNTASLTITGAQAEDEADYYCNSRDSSGNHVVFGGGTKLTVLG", "notes": "as for B1"}},
  "assay_in_all_cases": "antigen assigned by the filing's classifying and identification method; details for this clone not given",
  "key": {"CD46 antigen": {"target": "T1, CD46 antigen (Homo sapiens (Human), UniProt P15529 35-392)", "T1 construct": "Native protein on cancer cell lines; also called MCP (Membrane Co-factor Protein); gp45-70", "T1 sequence": "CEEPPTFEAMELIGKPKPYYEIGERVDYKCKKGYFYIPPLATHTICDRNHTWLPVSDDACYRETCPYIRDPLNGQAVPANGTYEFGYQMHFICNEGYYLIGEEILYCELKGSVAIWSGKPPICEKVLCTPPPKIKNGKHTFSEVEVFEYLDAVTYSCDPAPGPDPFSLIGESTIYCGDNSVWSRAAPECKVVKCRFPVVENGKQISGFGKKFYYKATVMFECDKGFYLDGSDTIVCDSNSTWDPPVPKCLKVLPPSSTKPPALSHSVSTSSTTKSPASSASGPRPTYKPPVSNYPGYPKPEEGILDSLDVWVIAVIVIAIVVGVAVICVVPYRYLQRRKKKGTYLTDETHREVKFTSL"}, "[1]": {"target": "T2, IgSF4 (immunoglobulin superfamily member 4) (Homo sapiens, UniProt Q9BY67 45-442)", "T2 construct": "Native protein on cancer cell lines; also called BL2; ST17", "T2 sequence": "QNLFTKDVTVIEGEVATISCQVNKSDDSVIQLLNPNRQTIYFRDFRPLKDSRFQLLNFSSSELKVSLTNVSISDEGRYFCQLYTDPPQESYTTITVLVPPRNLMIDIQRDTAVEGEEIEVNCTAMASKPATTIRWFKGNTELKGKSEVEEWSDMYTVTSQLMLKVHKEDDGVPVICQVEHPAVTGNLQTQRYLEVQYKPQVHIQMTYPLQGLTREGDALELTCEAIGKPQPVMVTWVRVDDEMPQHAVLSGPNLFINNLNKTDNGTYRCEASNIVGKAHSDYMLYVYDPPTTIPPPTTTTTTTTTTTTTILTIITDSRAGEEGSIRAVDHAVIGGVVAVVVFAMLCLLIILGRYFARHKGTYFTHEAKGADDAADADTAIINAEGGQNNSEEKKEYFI"}, "[2]": {"target": "T3, BCAM (basal cell adhesion molecule) (Lutheran blood group) (Homo sapiens (Human), UniProt P50895 32-628, limits assumed)", "T3 construct": "also called CD239 antigen", "T3 sequence": "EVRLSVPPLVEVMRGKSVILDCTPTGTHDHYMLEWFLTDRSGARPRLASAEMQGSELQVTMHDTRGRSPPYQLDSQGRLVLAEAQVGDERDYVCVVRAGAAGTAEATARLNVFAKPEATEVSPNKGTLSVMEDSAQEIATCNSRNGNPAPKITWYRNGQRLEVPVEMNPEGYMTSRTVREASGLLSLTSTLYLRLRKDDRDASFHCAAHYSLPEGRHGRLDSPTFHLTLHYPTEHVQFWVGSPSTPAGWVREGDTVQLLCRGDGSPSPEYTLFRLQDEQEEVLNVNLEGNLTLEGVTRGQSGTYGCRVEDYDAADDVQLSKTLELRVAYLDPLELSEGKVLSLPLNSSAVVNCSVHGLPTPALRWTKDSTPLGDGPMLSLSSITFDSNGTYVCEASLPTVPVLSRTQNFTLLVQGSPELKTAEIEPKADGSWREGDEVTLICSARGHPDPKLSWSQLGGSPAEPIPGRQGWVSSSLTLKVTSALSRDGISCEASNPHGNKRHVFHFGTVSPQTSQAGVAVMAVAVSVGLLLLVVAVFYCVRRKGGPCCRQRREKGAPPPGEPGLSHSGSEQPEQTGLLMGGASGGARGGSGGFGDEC"}},
  "data": [
    {"binder": "B1", "values": [
      {"measurement": "binding result", "setting": "CD46 antigen", "value": "binds"}
    ]},
    {"binder": "B2", "values": [
      {"measurement": "binding result", "setting": "[1]", "value": "binds"}
    ]},
    {"binder": "B3", "values": [
      {"measurement": "binding result", "setting": "[2]", "value": "binds"}
    ]}
  ]
}
